# Measured values reported in article PMC4288183.
# Experiments:
# [1] = target: T1, MNV RdRp (NS7) WT (Murine norovirus 1 strain CW1) (UniProt Q80J95); experiment: fluorescence polarization competition; settings: FP: 10 mM Tris-HCl pH 8.0, 30 mM NaCl, 1% glycerol, 0.5 mM 2-mercaptoethanol, 0.1 uM fMps, temperature not stated; synthesis competition: 20 mM Na glutamate pH …
# T1 sequence: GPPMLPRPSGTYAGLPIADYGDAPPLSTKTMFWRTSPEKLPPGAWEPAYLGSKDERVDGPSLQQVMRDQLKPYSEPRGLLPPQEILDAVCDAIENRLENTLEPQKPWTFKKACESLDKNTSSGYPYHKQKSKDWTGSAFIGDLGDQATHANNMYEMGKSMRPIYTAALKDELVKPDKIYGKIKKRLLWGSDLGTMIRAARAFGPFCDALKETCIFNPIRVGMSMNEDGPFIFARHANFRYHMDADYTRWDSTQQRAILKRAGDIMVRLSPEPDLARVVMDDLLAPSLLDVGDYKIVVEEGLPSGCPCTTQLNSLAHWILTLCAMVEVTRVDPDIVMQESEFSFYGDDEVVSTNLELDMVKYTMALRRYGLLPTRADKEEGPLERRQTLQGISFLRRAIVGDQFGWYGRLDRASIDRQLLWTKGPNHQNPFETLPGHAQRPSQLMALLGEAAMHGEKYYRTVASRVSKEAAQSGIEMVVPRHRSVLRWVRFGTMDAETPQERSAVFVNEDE
# [2] = target: T1, MNV RdRp (NS7) WT (Murine norovirus 1 strain CW1); experiment: fluorescence polarization; settings: FP: 10 mM Tris-HCl pH 8.0, 30 mM NaCl, 1% glycerol, 0.5 mM 2-mercaptoethanol, 0.1 uM fMps, temperature not stated; synthesis competition: 20 mM Na glutamate pH …
Sequence,IC50 [1] [nM],Ki [1] [nM],Kd [2] [nM]
CUGCUGAGCGUUCCUGCGGGGUCUCAGCAU [Mhp (hairpin of Mps; also printed Mph)],16200,6300,–
GCGUCAUUCACAAAGACUGCUGAGCGUUCCUGCGGGGUCUCAGCAUCCAUU [Mps (MNV subgenomic proscript)],2360,680,–
GCGUCAUUCACAAAGACUGCUGAGCGUUCCUGCGGGGUCUCAGCAUCCAUU [fMps (6-FAM MNV subgenomic proscript)],–,–,500
